Measured values taken from patent publication US20070224205A1.
Numbering of substitutions follows the chain as printed.

B1: STF2.HA1-3(PR8), produced in E. coli (protein)
chain: MAQVINTNSLSLLTQNNLNKSQSALGTAIERLSSGLRINSAKDDAAGQAIANRFTANIKGLTQASRNANDGISIAQTTEGALNEINNNLQRVRELAVQSANSTNSQSDLDSIQAEITQRLNEIDRVSGQTQFNGVKVLAQDNTLTIQVGANDGETIDIDLKQINSQTLGLDSLNVQKAYDVKDTAVTTKAYANNGTTLDVSGLDDAAIKAATGGTNGTASVTGGAVKFDADNNKYFVTIGGFTGADAAKNGDYEVNVATDGTVTLAAGATKTTMPAGATTKTEVQELKDTPAVVSADAKNALIAGGVDATDANGAELVKMSYTDKNGKTIEGGYALKAGDKYYAADYDEATGAIKAKTTSYTAADGTTKTAANQLGGVDGKTEVVTIDGKTYNASKAAGHDFKAQPELAEAAAKTTENPLQKIDAALAQVDALRSDLGAVQNRFNSAITNLGNTVNNLSEARSRIEDSDYATEVSNMSRAQILQQAGTSVLAQANQVPQNVLSLLANSENGICYPGDFIDYEELREQLSSVSSFERFEIFPKESSWPNHNTNGVTAACSHEGKSSFYRNLLWLTEKEGSYPKLKNSYVNKKGKEVLVLWGIHHPPNSKEQQNLYQNENAYVSVVTSNYNRRFTPEIAERPKVRDQAGRMNYYWTLLKPGDTIIFEANGNLIAPMYAFALSRG
B2: STF2.EIII+ (protein)
chain: MAQVINTNSLSLLTQNNLNKSQSALGTAIERLSSGLRINSAKDDAAGQAIANRFTANIKGLTQASRNANDGISIAQTTEGALNEINNNLQRVRELAVQSANSTNSQSDLDSIQAEITQRLNEIDRVSGQTQFNGVKVLAQDNTLTIQVGANDGETIDIDLKQINSQTLGLDSLNVQKAYDVKDTAVTTKAYANNGTTLDVSGLDDAAIKAATGGTNGTASVTGGAVKFDADNNKYFVTIGGFTGADAAKNGDYEVNVATDGTVTLAAGATKTTMPAGATTKTEVQELKDTPAVVSADAKNALIAGGVDATDANGAELVKMSYTDKNGKTIEGGYALKAGDKYYAADYDEATGAIKAKTTSYTAADGTTKTAANQLGGVDGKTEVVTIDGKTYNASKAAGHDFKAQPELAEAAAKTTENPLQKIDAALAQVDALRSDLGAVQNRFNSAITNLGNTVNNLSEARSRIEDSDYATEVSNMSRAQILQQAGTSVLAQANQVPQNVLSLLRKGNSKLEGQLEFPRTSMEKLQLKGTTYGVCSKAFKFLGTPADTGHGTVVLELQYTGTDGPCKVPISSVASLNDLTPVGRLVTVNPFVSVATANAKVLIELEPPFGDSYIVVGRGEQQINHHWHKSGSSIGK
B3: STF2.HA1-2His(PR8), produced in Baculovirus (protein)
chain: AQVINTNSLSLLTQNNLNKSQSALGTAIERLSSGLRINSAKDDAAGQAIANRFTANIKGLTQASRNANDGISIAQTTEGALNEINNNLQRVRELAVQSANSTNSQSDLDSIQAEITQRLNEIDRVSGQTQFNGVKVLAQDNTLTIQVGANDGETIDIDLKQINSQTLGLDSLNVQKAYDVKDTAVTTKAYANNGTTLDVSGLDDAAIKAATGGTNGTASVTGGAVKFDADNNKYFVTIGGFTGADAAKNGDYEVNVATDGTVTLAAGATKTTMPAGATTKTEVQELKDTPAVVSADAKNALIAGGVDATDANGAELVKMSYTDKNGKTIEGGYALKAGDKYYAADYDEATGAIKAKTTSYTAADGTTKTAANQLGGVDGKTEVVTIDGKTYNASKAAGHDFKAQPELAEAAAKTTENPLQKIDAALAQVDALRSDLGAVQNRFNSAITNLGNTVNNLSEARSRIEDSDYATEVSNMSRAQILQQAGTSVLAQANQVPQNVLSLLASGSGSGSKGIAPQLGKCNIAGWLLGNPECDPLLPVRSWSYIVETPNSENGICYPGDFIDYEELREQLSSVSSFERFEIFPKESSWPNHNTNGVTAACSHEGKSSFYRNLLWLTEKEGSYPKLKNSYVNKKGKEVLVLWGIHHPPNSKEQQNLYQNENAYVSVVTSNYNRRFTPEIAERPKVRDQAGRMNYYWTLLKPGDTIIFEANGNLIAPMYAFALSRGFGSGIITSHHHHHH
B4: ngSTF2.HA1-2mutHis(PR8) (protein)
chain: B3 chain with N18Q, N100Q, N193Q, N215Q, N392Q, N456Q, N475Q, I515A, Y545D, V547A
B5: STF2.HA1-1His(PR8), produced in E. coli (protein)
chain: MAQVINTNSLSLLTQNNLNKSQSALGTAIERLSSGLRINSAKDDAAGQAIANRFTANIKGLTQASRNANDGISIAQTTEGALNEINNNLQRVRELAVQSANSTNSQSDLDSIQAEITQRLNEIDRVSGQTQFNGVKVLAQDNTLTIQVGANDGETIDIDLKQINSQTLGLDSLNVQKAYDVKDTAVTTKAYANNGTTLDVSGLDDAAIKAATGGTNGTASVTGGAVKFDADNNKYFVTIGGFTGADAAKNGDYEVNVATDGTVTLAAGATKTTMPAGATTKTEVQELKDTPAVVSADAKNALIAGGVDATDANGAELVKMSYTDKNGKTIEGGYALKAGDKYYAADYDEATGAIKAKTTSYTAADGTTKTAANQLGGVDGKTEVVTIDGKTYNASKAAGHDFKAQPELAEAAAKTTENPLQKIDAALAQVDALRSDLGAVQNRFNSAITNLGNTVNNLSEARSRIEDSDYATEVSNMSRAQILQQAGTSVLAQANQVPQNVLSLLASHNGKLCRLKGIAPLQLGKCNIAGWLLGNPECDPLLPVRSWSYIVETPNSENGICYPGDFIDYEELREQLSSVSSFERFEIFPKESSWPNHNTNGVTAACSHEGKSSFYRNLLWLTEKEGSYPKLKNSYVNKKGKEVLVLWGIHHPPNSKEQQNLYQNENAYVSVVTSNYNRRFTPEIAERPKVRDQAGRMNYYWTLLKPGDTIIFEANGNLIAPMYAFALSRGFGSGIITSNASMHECNTKCQTPLGAINSSLPYQNIHPVTIGECPKYVRHHHHHH
B6: STF2.HA1-2mutHis(PR8), produced in Baculovirus (protein)
chain: AQVINTNSLSLLTQNNLNKSQSALGTAIERLSSGLRINSAKDDAAGQAIANRFTANIKGLTQASRNANDGISIAQTTEGALNEINNNLQRVRELAVQSANSTNSQSDLDSIQAEITQRLNEIDRVSGQTQFNGVKVLAQDNTLTIQVGANDGETIDIDLKQINSQTLGLDSLNVQKAYDVKDTAVTTKAYANNGTTLDVSGLDDAAIKAATGGTNGTASVTGGAVKFDADNNKYFVTIGGFTGADAAKNGDYEVNVATDGTVTLAAGATKTTMPAGATTKTEVQELKDTPAVVSADAKNALIAGGVDATDANGAELVKMSYTDKNGKTIEGGYALKAGDKYYAADYDEATGAIKAKTTSYTAADGTTKTAANQLGGVDGKTEVVTIDGKTYNASKAAGHDFKAQPELAEAAAKTTENPLQKIDAALAQVDALRSDLGAVQNRFNSAITNLGNTVNNLSEARSRIEDSDYATEVSNMSRAQILQQAGTSVLAQANQVPQNVLSLLASGSGSGSKGAAPLQLGKCNIAGWLLGNPECDPLLPVRSWSDIAETPNSENGICYPGDFIDYEELREQLSSVSSFERFEIFPKESSWPNHNTNGVTAACSHEGKSSFYRNLLWLTEKEGSYPKLKNSYVNKKGKEVLVLWGIHHPPNSKEQQNLYQNENAYVSVVTSNYNRRFTPEIAERPKVRDQAGRMNYYWTLLKPGDTIIFEANGNLIAPMYAFALSRGFGSGIITSHHHHHH
B7: STF2.HA1-2(PR8), produced in E. coli (protein)
chain: MAQVINTNSLSLLTQNNLNKSQSALGTAIERLSSGLRINSAKDDAAGQAIANRFTANIKGLTQASRNANDGISIAQTTEGALNEINNNLQRVRELAVQSANSTNSQSDLDSIQAEITQRLNEIDRVSGQTQFNGVKVLAQDNTLTIQVGANDGETIDIDLKQINSQTLGLDSLNVQKAYDVKDTAVTTKAYANNGTTLDVSGLDDAAIKAATGGTNGTASVTGGAVKFDADNNKYFVTIGGFTGADAAKNGDYEVNVATDGTVTLAAGATKTTMPAGATTKTEVQELKDTPAVVSADAKNALIAGGVDATDANGAELVKMSYTDKNGKTIEGGYALKAGDKYYAADYDEATGAIKAKTTSYTAADGTTKTAANQLGGVDGKTEVVTIDGKTYNASKAAGHDFKAQPELAEAAAKTTENPLQKIDAALAQVDALRSDLGAVQNRFNSAITNLGNTVNNLSEARSRIEDSDYATEVSNMSRAQILQQAGTSVLAQANQVPQNVLSLLAKGIAPLQLGKCNIAGWLLGNPECDPLLPVRSWSYIVETPNSENGICYPGDFIDYEELREQLSSVSSFERFEIFPKESSWPNHNTNGVTAACSHEGKSSFYRNLLWLTEKEGSYPKLKNSYVNKKGKEVLVLWGIHHPPNSKEQQNLYQNENAYVSVVTSNYNRRFTPEIAERPKVRDQAGRMNYYWTLLKPGDTIIFEANGNLIAPMYAFALSRGFGSGIITS
B8: STF2.HA1-2(PR8)mut (protein)
chain: B7 chain with I509A, Y540D, V542A

Molecular target: Toll-like Receptor 5 (UniProt O60602)
Assay: cell-based or functional assay

| Binder | TLR5 activity (EC50, ng/ml); IL-8 secretion by HEK293 cells [ng/mL] | TLR activity (EC50, ng/ml); IL-8 secretion by HEK293 cells [ng/mL] | also measured |
| --- | --- | --- | --- |
| B1 | 1.2 | – | – |
| B2 | – | – | TLR-5 EC50 (batch 052); IL-8 secretion by HEK293 cells: > 5000 ng/mL; TLR-5 EC50 (batch 054); IL-8 secretion by HEK293 cells: 1200 ng/mL; TLR-5 EC50 (batch 057); IL-8 secretion by HEK293 cells: 198 ng/mL |
| B3 | – | 9 | – |
| B4 | – | 9 | – |
| B5 | 0.2 | – | – |
| B6 | – | 900 | – |
| B7 | 0.15 | – | – |
| B8 | 1.2 | – | – |
